Changes are numbered by the printed parent chain.

The text below walks through data of patent publication US20260166085A1 (BEAM THERAPEUTICS, published 2026).

B1: ABTx030 (antibody, V domains shown)
VH: QVQLQESGGGLVKPGGSLRLSCAASGFTFSSYSMNWVRQAPGKGLEWVSSIGTISSYIYYADSVKGRFTISRDNAKNSLYLQMNSLRAEDTAVYYCARDYYGGLFDYWGQGTLVTVSS
VL: not shown
B2: ABTx202 (antibody, human IgG1, V domains shown)
VH: EVQLVESGGGLVQPGRSLRLSCAASGFTFDDYAMHWVRQAPGKGLEWVSGISWNSGTIGYADSVKGRFTSSRDNAKNSLYLEMNSLRAEDTALYYCAKDSPPGYCSSASCYGAFDIWGQGTMVTVSS
VL: EIVMTQSPGTLSLSPGERATLSCRASQSVSSSYLAWYQQKPGQAPRLLIYGSSTRATGIPARFSGSGSGTEFALTISSLQSEDFAVYYCQQYNFWPYTFGQGTKVEIK
B3: ABTx205 (antibody, human IgG1, V domains shown)
VH: B2 VH with S70N
VL: DIVMTQSPSFLSASVGDRVTITCRASQGISSYLAWYQQKPGKAPKLLIYAASTLQNGVPSRFSGSGSGTDFTLTITSLQPEDFATYYCQQSYSTPYTFGQGTKLEIK
B4: ABTx203 (antibody, human IgG1, V domains shown)
VH: B2 VH with S70N, S100W, P102S, Y104F, S109Y
VL: B3 VL
B5: ABTx206 (antibody, human IgG1, V domains shown)
VH: B2 VH with S70N, W117R
VL: B3 VL
B6: ABTx052 variant VL_F91T (antibody, human IgG1, V domains shown)
VH: QVQLVQSGAAVKKPGESLKISCKGSGYRFTSYWIGWVRQMPGKGLEWMGIIYPGDSDTRYSPSFQGQVTISAGKSISTAYLQWSSLKASDTAMYYCARHGRGYNGYEGAFDIWGQGTMVTVSS
VL: AIQLTQSPSSLSASVGDRVTITCRASQGISSALAWYQQKPGKAPKLLIYDASSLESGVPSRFSGSGSGTDFTLTISSLQPEDFATYYCQQTNSYPLTFGGGTKVEIK
B7: ABTx052 variant VH_G105A (antibody, human IgG1, V domains shown)
VH: B6 VH with G105A
VL: AIQLTQSPSSLSASVGDRVTITCRASQGISSALAWYQQKPGKAPKLLIYDASSLESGVPSRFSGSGSGTDFTLTISSLQPEDFATYYCQQFNSYPLTFGGGTKVEIKR
B8: ABTx052 variant VH_R59K (antibody, human IgG1, V domains shown)
VH: B6 VH with R59K
VL: B7 VL
B9: ABTx052 variant VL_S93G (antibody, human IgG1, V domains shown)
VH: B6 VH
VL: B6 VL with T91F, S93G
B10: ABTx052 variant VH_N104D (antibody, human IgG1, V domains shown)
VH: B6 VH with N104D
VL: B7 VL
B11: ABTx251 (antibody, human IgG1, kappa, V domains shown)
VH: B6 VH with N104D
VL: B7 VL with N92Y
B12: ABTx267 (antibody, human IgG1, kappa, V domains shown)
VH: B6 VH with R59K, N104D, G105A, E107D
VL: B7 VL with F91T, Y94S
B13: ABTx261 (antibody, human IgG1, kappa, V domains shown)
VH: B6 VH with R59K, N104D, G105A
VL: B7 VL with F91T, N92R
B14: ABTx270 (antibody, human IgG1, kappa, V domains shown)
VH: B6 VH with N104D, G105A
VL: B7 VL with F91V, N92R
B15: ABTx263 (antibody, human IgG1, kappa, V domains shown)
VH: B6 VH with R59K, N104D, E107D
VL: B7 VL with F91V, N92Y
B16: ABTx269 (antibody, human IgG1, kappa, V domains shown)
VH: B6 VH with R59K, N104D
VL: B7 VL with F91V, N92Y
B17: ABTx262 (antibody, human IgG1, kappa, V domains shown)
VH: B6 VH with N104D, G105A
VL: B7 VL with N92R, Y94S
B18: ABTx272 (antibody, human IgG1, kappa, V domains shown)
VH: B6 VH with R59K, N104D, E107D
VL: B7 VL with F91V, N92R
B19: ABTx256 (antibody, human IgG1, kappa, V domains shown)
VH: B6 VH with N104D, G105A
VL: B7 VL with F91T, N92Y
B20: ABTx273 (antibody, human IgG1, kappa, V domains shown)
VH: B6 VH with N104D
VL: B7 VL with N92R
B21: ABTx268 (antibody, human IgG1, kappa, V domains shown)
VH: B6 VH with R59K, N104D
VL: B7 VL with F91V
B22: ABTx265 (antibody, human IgG1, kappa, V domains shown)
VH: B6 VH with R59K, N104D, E107D
VL: B7 VL with F91T, N92R
B23: ABTx258 (antibody, human IgG1, kappa, V domains shown)
VH: B6 VH with R59K, N104D, G105A
VL: B7 VL with F91V, N92R

T3 sequence (P10721 26-976 limits assumed): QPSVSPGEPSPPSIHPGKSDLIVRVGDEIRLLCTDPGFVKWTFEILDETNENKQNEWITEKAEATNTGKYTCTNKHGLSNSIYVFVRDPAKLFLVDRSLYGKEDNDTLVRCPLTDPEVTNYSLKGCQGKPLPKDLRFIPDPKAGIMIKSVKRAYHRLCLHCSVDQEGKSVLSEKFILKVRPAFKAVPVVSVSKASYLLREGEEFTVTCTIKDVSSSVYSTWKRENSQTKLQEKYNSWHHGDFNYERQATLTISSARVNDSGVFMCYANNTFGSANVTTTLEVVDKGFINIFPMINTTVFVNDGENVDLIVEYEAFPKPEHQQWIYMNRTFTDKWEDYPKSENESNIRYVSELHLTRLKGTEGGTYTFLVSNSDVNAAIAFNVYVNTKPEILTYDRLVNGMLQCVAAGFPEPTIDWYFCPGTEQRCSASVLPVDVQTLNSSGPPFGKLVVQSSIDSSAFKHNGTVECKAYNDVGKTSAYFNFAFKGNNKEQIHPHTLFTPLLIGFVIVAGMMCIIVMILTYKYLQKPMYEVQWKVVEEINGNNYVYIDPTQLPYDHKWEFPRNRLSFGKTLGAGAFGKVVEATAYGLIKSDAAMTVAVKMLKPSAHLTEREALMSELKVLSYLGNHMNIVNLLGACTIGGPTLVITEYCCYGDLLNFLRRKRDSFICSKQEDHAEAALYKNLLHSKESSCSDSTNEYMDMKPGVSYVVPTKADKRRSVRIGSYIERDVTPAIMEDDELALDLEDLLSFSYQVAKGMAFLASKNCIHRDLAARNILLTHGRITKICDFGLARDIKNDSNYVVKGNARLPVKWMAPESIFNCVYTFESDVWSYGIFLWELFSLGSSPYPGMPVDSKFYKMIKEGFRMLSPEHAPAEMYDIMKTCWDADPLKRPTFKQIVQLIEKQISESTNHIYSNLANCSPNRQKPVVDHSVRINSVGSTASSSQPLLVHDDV
T4 sequence (P10721 26-520 S261G limits assumed): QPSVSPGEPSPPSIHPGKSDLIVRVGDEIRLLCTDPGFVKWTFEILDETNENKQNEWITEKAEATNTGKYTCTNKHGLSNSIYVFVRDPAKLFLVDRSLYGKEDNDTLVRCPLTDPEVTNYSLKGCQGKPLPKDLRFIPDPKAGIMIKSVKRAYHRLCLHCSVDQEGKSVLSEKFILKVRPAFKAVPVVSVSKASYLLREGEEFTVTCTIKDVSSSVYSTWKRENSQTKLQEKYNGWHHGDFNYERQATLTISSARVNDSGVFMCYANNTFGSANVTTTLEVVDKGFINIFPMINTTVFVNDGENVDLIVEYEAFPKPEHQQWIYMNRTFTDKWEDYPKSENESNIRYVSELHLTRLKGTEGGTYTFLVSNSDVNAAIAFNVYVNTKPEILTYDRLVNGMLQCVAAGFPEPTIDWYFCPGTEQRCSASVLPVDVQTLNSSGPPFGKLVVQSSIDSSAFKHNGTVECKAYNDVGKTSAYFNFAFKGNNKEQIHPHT
T1 sequence (chain, as listed by the source): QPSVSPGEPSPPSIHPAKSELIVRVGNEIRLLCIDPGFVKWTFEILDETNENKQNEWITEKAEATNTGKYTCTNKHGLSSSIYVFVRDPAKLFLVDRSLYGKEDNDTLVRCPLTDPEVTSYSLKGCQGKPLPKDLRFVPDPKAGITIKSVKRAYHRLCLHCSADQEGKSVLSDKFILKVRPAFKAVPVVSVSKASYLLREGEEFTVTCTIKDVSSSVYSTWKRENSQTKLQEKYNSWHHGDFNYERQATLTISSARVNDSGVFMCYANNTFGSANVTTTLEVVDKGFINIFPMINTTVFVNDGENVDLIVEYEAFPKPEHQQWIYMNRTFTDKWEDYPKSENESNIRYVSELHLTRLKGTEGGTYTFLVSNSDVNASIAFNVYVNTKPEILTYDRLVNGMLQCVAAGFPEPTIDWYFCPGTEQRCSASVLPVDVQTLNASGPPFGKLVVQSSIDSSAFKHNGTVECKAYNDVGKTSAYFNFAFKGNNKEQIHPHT

The first assay addresses T1, Cyno CD117 (cynomolgus, UniProt F6V858 26-520 (rhesus entry)).
T1 construct: also called cynomolgus CD117
Kind of assay: KD, method not stated (Table 8B).
As a reminder, the Kd is the constant that tells how readily two partners part at equilibrium. B1 came in with a Kd of 0.83 nM.

The target of a further assay is T2, Wild type CD117 purified protein (human, UniProt P10721 26-520, limits assumed).
T2 construct: Protein used in BLI/kinetics and cryo-EM; also called wt CD117; Wt CD117
T2 sequence (P10721 26-520 limits assumed): as the sequence (P10721 26-520 S261G limits assumed) above, with G236S counted along it
As to the kind of experiment: KD, method not stated (Table 8B).
With B1, the affinity, expressed as Kd, was 0.449 nM.

A further assay concerns the target T2, Wild type CD117 purified protein. As to the kind of experiment: monovalent KD, CD117 titrated (FIGS. 73A-73E).
For orientation: koff means the first-order rate constant of dissociation. Higher therefore signals a short-lived complex. What is called kon is the second-order rate constant of association. Lower therefore signals slow association. For B2, the affinity, expressed as Kd, was 2.42 nM; the koff came out at 0.00014 s⁻¹; the kon came out at 57800 M⁻¹ s⁻¹.
B3 displayed a Kd of 2.07 nM, a koff of 0.000117 s⁻¹ and a kon of 56600 M⁻¹ s⁻¹.
Turning to B4, the Kd turned out to be 6.62 nM, the koff came to 0.000643 s⁻¹ and the kon came to 97100 M⁻¹ s⁻¹.
B5 showed a Kd of 1.26 nM, a koff of 5.07e-05 s⁻¹ and a kon of 40300 M⁻¹ s⁻¹.

The next assay has as its target T3, Wild type CD117 expressed on cells (M07e cells, unedited human CD34+ HSPCs) (human, UniProt P10721 26-976).
T3 construct: Endogenous receptor on cells; also called wtCD117; WT CD117
Kind of assay: flow cytometry on M07e cells, AF647 secondary (FIG. 76A).
The EC50 is the concentration that produces a half-maximal response. Read a high EC50 as a less potent agent. B2 came in with an EC50 of 7.98 nM.
Regarding B3, the concentration for a half-maximal effect (EC50) stood at 7.48 nM.
The molecule B4 registered an EC50 of 5.56 nM.
B5: the EC50 is 14.2 nM.

The target of the next assay is T2, Wild type CD117 purified protein. As to the kind of experiment: summary Table 75 (repeats Table 71).
B2 came in with a Kd of 2.42 nM.
As for B3, the Kd is 2.07 nM.
Take B4: the Kd was 6.62 nM.
Turning to B5, the Kd was 1.26 nM.

For a further assay, the target named is T3, Wild type CD117 expressed on cells …. As to the kind of experiment: summary Table 75 (repeats Table 73).
As to B2, the EC50 turned out to be 7.98 nM.
B3 displayed an EC50 of 7.48 nM.
On the same count and under the same terms, to B4 belongs 5.56 nM; to B5, 14.2 nM.

For another assay, the target named is T2, Wild type CD117 purified protein. Kind of assay: binding kinetics, FIGS. 45A-45K.
B6 registered a Kd of 0.191 nM, a dissociation rate constant (koff) of 0.000104 s⁻¹ and a kon of 543000 M⁻¹ s⁻¹.
In turn, B7 gave a Kd of 0.254 nM, a koff of 0.000153 s⁻¹ and a kon of 601000 M⁻¹ s⁻¹.
For B8, in that order: 0.986 nM, 0.000713 s⁻¹ and 723000 M⁻¹ s⁻¹.
For B9, binding was characterised by a dissociation constant (Kd) of 0.0716 nM, the dissociation rate constant (koff) was found to be 4.81e-05 s⁻¹ and the kon stood at 671000 M⁻¹ s⁻¹.
In the case of B10, the affinity, expressed as Kd, was 0.495 nM; the koff was 0.000342 s⁻¹; the kon is 691000 M⁻¹ s⁻¹.

The next assay concerns the target T4, CC200 variant of CD117 (S261G) purified protein (human, UniProt P10721 26-520, limits assumed). As to the kind of experiment: binding kinetics, FIGS. 45A-45K.
Turning to B8, the binding result is recorded as “no binding”.

Another assay deals with T5, CC128 variant of CD117 (Y259C + N260D) purified protein (human, UniProt P10721 26-520, limits assumed).
T5 construct: also called CC128-edited CD117 as purified protein
T5 sequence (P10721 26-520 Y259C/N260D limits assumed): as the sequence (P10721 26-520 S261G limits assumed) above, with Y234C, N235D, G236S counted along it
As to the kind of experiment: binding kinetics, FIGS. 45A-45K.
Consider B8, for which the binding result is on record as “no binding”.

The target in another assay is T4, CC200 variant of CD117 (S261G) purified …. As to the kind of experiment: binding kinetics grade, FIGS. 55A-55C.
For B11, the binding result is “no binding”.
Regarding B12, the binding result is given as “no binding”.
As to B13, the binding result was “no binding”.
As to B14, the binding result is given as “no binding”.
In the case of B15, the binding result is “no binding”.
On the same count and under the same terms, to B16 belongs “no binding”; to B17, “no binding”.
The same measure, in the same setting: to B18 belongs “no binding”; to B19, “no binding”; to B20, “no binding”.
Still for that read-out and setting: to B21 belongs “no binding”; to B22, “no binding”.
B23: the binding result was “no binding”.

A further assay addresses T5, CC128 variant of CD117 (Y259C + N260D) …. Kind of assay: binding kinetics grade, FIGS. 55A-55C.
Regarding B11, the binding result is reported as “no binding”.
On the same count and under the same terms, for B12 the value was “no binding”; for B13, “no binding”.
For B14, the binding result is listed as “no binding”.
Same read-out and setting: to B15 belongs “no binding”.
The same measure, in the same setting: for B16 the value was “no binding”; for B17, “no binding”.
B18: the binding result is “no binding”.
With B19, the binding result was “no binding”.
On the same count and under the same terms, for B20 the value was “no binding”; for B21, “no binding”.
Consider B22, for which the binding result is recorded as “no binding”.
Consider B23, for which the binding result is on record as “no binding”.
